Experimental findings from article PMC9141661 are described below.

The target of experiment [1] is Angiotensin-converting enzyme 2 (ACE2) ectodomain, Fc-tagged (human) (UniProt Q9BYF1). Description: BLI. (In general: BLI is a label-free optical method that tracks binding on a fibre tip over time.)
Experiment [2] has the same target. Description: latex nanoparticle-enhanced turbidimetry.

Angiotensin-converting enzyme 2 (ACE2) ectodomain, Fc-tagged (human), sequence (Q9BYF1 18-740): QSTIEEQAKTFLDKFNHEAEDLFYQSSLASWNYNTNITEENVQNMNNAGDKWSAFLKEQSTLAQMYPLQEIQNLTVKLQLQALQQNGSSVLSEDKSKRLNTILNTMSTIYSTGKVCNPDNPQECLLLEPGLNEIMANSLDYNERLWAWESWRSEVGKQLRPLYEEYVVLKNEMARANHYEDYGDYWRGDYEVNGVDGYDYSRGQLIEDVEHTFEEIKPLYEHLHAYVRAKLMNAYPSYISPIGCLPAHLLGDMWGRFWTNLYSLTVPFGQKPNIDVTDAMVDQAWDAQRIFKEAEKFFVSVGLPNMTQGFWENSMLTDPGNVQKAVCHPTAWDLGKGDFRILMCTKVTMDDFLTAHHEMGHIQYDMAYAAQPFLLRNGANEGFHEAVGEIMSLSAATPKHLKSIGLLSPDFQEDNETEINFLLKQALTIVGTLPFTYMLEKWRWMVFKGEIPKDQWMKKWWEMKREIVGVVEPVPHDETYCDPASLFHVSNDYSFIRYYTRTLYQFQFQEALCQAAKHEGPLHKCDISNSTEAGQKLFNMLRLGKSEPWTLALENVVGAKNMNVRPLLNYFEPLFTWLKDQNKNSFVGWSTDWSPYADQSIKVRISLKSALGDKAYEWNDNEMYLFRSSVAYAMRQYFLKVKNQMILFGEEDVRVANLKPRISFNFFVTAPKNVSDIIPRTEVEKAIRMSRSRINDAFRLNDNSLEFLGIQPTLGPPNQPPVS

For the substance “Human milk lactoferrin (natural protein)”, in experiment [1], the Kd came to 27.6 µM, the koff came to 0.461 s⁻¹ and the on-rate (kon) was 16700 M⁻¹ s⁻¹. In addition, the apparent Kobs (inhibition of RBD-ACE2 complex formation, initial rates) in experiment [2] is 6.3 µM.

As usually defined, the Kd is the equilibrium constant for the complex coming apart. The low end stands for a tighter complex, the high end for a looser complex. What is called koff is the first-order rate constant of dissociation. Read a low koff as slow dissociation. One may read the kon as the second-order rate constant of association.
